The results in this text go back to publication PMC5658772 (2017).

The experiment concerns the target T1, ZIKV envelope protein domain III-hFc fusion protein (ZIKV-DIII-hFc) (Zika virus strain MR766, UniProt Q32ZE1).
T1 chain: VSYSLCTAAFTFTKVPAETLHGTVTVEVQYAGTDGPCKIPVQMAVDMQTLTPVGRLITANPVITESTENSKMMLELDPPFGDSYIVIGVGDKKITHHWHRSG
Description: BLI. A general note: Biolayer interferometry detects binding as a change in optical thickness at a sensor tip.

B1: m302 IgG1 (antibody, V domains shown)
VH: EVQLVQSGGGLVKPGRSLRLSCAASGFTFSSYAMHWVRQAPGKGLEWVAVISYDGSNKYYADSVKGRFTISRDNSKNTLYLQMNSLRAEDTAVYYCAREIGDYYYYGMDVWGQGTLVTVSS
VL: EIVMTQSPATLSLSPGERATLSCRASQSVSSYLAWYQQKPGQAPRLLIYDASNRATGIPARFSGSGSGTDFTLTISSLQPEDFATYYCQQSYSTPLTFGGGTKVEIK
With B1, the koff came to 0.00177 s⁻¹.

As a reminder, the koff is the first-order rate constant of dissociation. A higher koff goes with fast dissociation.
